Assay results as given in the Immune Epitope Database (IEDB).

Experiments:
Experiment in all cases: IEDB peptide-MHC binding, purified MHC/competitive/radioactivity; filed as Kd, often an IC50 or EC50 that approximates it; ≥ and ≤ were set here for values at or beyond the usual limits of such assays
HLA-A*02:06 = biological target: HLA-A*02:06
HLA-A*02:03 = biological target: HLA-A*02:03
HLA-A*02:02 = biological target: HLA-A*02:02
[1] = source organism: Vaccinia virus WR
[2] = source organism: SARS coronavirus Tor2
[3] = source organism: Lymphocytic choriomeningitis virus (strain Armstrong)
[4] = source organism: Dengue virus 4 Philippines/H241/1956
[5] = source organism: Vaccinia virus Copenhagen
[6] = source organism: Mammarenavirus whitewaterense
[7] = source organism: Mammarenavirus tacaribeense

Row | Sequence | Kd (HLA-A*02:06; [1]) [nM] | Kd (HLA-A*02:03; [1]) [nM] | Kd (HLA-A*02:02; [1]) [nM] | also measured
1 | AILHNIYRL | 43.8 | 814 | 106 | –
2 | ALKNSQAEL | ≥ 32900 | 16.8 | 70.9 | –
3 | ALTDVEKRIL | 934 | 127 | 96.9 | –
4 | ALWDSNFFT | ≥ 23100 | ≥ 28200 | 1060 | –
5 | ATCALVSDCA | 9140 | ≥ 23400 | ≥ 34700 | –
6 | CVSNLDISSV | 47.9 | 2.3 | 51.8 | –
7 | DIIDLLLPST | 284 | 6590 | 14500 | –
8 | DIKYISRDEL | 2060 | 9570 | 2550 | –
9 | DITNILGGVL | 18900 | 3680 | 12300 | –
10 | DVQRTRCKYV | 9510 | 6470 | 1070 | –
11 | EIDVSEVKT | ≥ 77100 | ≥ 78100 | ≥ 46000 | –
12 | ELEKCTSEI | ≥ 57900 | ≥ 56000 | ≥ 21100 | –
13 | ELVMDKNHAI | ≥ 69800 | ≥ 70400 | 14200 | –
14 | EMQLKIDKLT | ≥ 69800 | 6820 | 9660 | –
15 | EMVEYLENQL | 420 | 209 | 212 | –
16 | ETIQKDINI | ≥ 34900 | ≥ 50800 | ≥ 36600 | –
17 | FLCLFLLPSL | – | – | – | Kd (HLA-A*02:06; [2]): 0.373 nM; Kd (HLA-A*02:03; [2]): 2.86 nM; Kd (HLA-A*02:02; [2]): 0.531 nM
18 | FLNRFTTTL | – | – | – | Kd (HLA-A*02:06; [2]): 58.1 nM; Kd (HLA-A*02:03; [2]): 1.02 nM; Kd (HLA-A*02:02; [2]): 0.659 nM
19 | FLYIIKLVFL | – | – | – | Kd (HLA-A*02:06; [2]): 865 nM; Kd (HLA-A*02:03; [2]): 22.4 nM; Kd (HLA-A*02:02; [2]): 7.28 nM
20 | FMECNLNELV | – | – | – | Kd (HLA-A*02:03; source organism: Homo sapiens): 70.2 nM
21 | FSLGAAVKA | – | – | – | Kd (HLA-A*02:06; [3]): 327 nM; Kd (HLA-A*02:03; [3]): 13300 nM; Kd (HLA-A*02:02; [3]): 6460 nM
22 | FTILEYLYIM | 40.5 | 3200 | 355 | –
23 | FVATFRDMLL | 4.36 | 17.6 | 0.697 | –
24 | GIKGLDERFV | 940 | 844 | 6190 | –
25 | GLYIPGTSV | 1740 | 16.6 | 111 | –
26 | GVSGLYIPGT | 31.7 | 2150 | 140 | –

Row | Sequence | Kd (HLA-A*02:06; [1]) [nM] | Kd (HLA-A*02:03; [1]) [nM] | Kd (HLA-A*02:02; [1]) [nM] | also measured
27 | ILNAHEDGV | – | – | – | Kd (HLA-A*02:03; [4]): 93.2 nM
28 | IMEIVSHLRA | 4410 | 396 | 955 | –
29 | IMRNFLRSIA | 544 | 122 | 59.9 | –
30 | KIDILQMREI | 875 | 414 | 1280 | –
31 | KINNNRIVAM | 3190 | 1300 | 9120 | –
32 | KIQLFSDFTI | ≥ 69800 | ≥ 70400 | ≥ 70000 | –
33 | KMFESTYRGA | – | – | – | Kd (HLA-A*02:03; source organism: Dengue virus 4 Dominica/814669/1981): 10.4 nM
34 | KVTVPTNDHI | 3600 | 1240 | 4710 | –
35 | LAYYNSCMLT | 86.2 | 15.9 | 12.1 | –
36 | LIAGIILLIL | – | – | – | Kd (HLA-A*02:06; [5]): 345 nM; Kd (HLA-A*02:03; [5]): 680 nM; Kd (HLA-A*02:02; [5]): 141 nM
37 | LIASLVMLLV | – | – | – | Kd (HLA-A*02:03; [4]): 64.7 nM
38 | LMELPVKTDI | 12900 | 986 | 1510 | –
39 | LNASYITPYV | – | – | – | Kd (HLA-A*02:06; [6]): 37.7 nM; Kd (HLA-A*02:03; [6]): 1070 nM; Kd (HLA-A*02:02; [6]): 33.2 nM
40 | LTNAISSRV | 145 | 18.6 | 146 | –
41 | MLIIFWFSL | – | – | – | Kd (HLA-A*02:06; [2]): 490 nM; Kd (HLA-A*02:03; [2]): 13000 nM; Kd (HLA-A*02:02; [2]): 132 nM
42 | MNNVVQALT | – | – | – | Kd (HLA-A*02:06; [7]): ≥ 77000 nM; Kd (HLA-A*02:03; [7]): ≥ 21500 nM; Kd (HLA-A*02:02; [7]): 2280 nM
43 | MVMCGGSLYV | – | – | – | Kd (HLA-A*02:06; [2]): 13.2 nM; Kd (HLA-A*02:03; [2]): 10.3 nM; Kd (HLA-A*02:02; [2]): 15.1 nM
44 | NILGGVLHT | 9960 | ≥ 20600 | ≥ 77800 | –
45 | NITHTNITTL | 8170 | 5020 | 10400 | –
46 | NIYRLFTRCA | 22.9 | 138 | 9890 | –
47 | NLETYTRPEI | 636 | 1500 | 539 | –
48 | NLLEQLIENI | 396 | 1440 | 836 | –
49 | NQAAVLMGL | – | – | – | Kd (HLA-A*02:06; [4]): 6.98 nM
50 | NTISGNIYSA | 393 | 314 | 269 | –
51 | NVDVGCLLT | ≥ 64500 | 14000 | 9850 | –
52 | NVIGLIVIL | 15.1 | 2400 | 84.9 | –
